Consider one molecule from patent publication US20110300113A1, “Death Receptor CD95 Controls Neurogenesis of Adult Neural Stem Cells in Vivo and in Vitro” (DEUTSCHES KREBSFORSCHUNGSZENTRUM, priority 2006, published 2011).

The subject of test [1] is neural progenitor cells. The test is described as follows: GFAP expression (glial differentiation) in neural progenitor cells. The test is classed as cell-based, mouse. As to conditions: data not shown. How it is done: (§1) For staining of intracellular markers, cells were harvested, fixed with 4% PFA for 10 min on ice, washed and permeabilized using 0.1% Saponin (Sigma-Aldrich) in PBS with 10% FCS (SAP). Cells were incubated with primary antibody or isotype for 30 min on ice. Cells were washed three time with SAP and incubated with secondary antibody for 30 min on ice. Cells were washed again three times with SAP and analysed. Antibodies used were: anti β-III-tubulin (Chemicon) 1:100, anti GFAP (Chemicon) 1:100 and isotype mouse IgG1 (Sigma) 1:20. Secondary antibody was goat anti-mouse PE 1:100 (Dianova). To quantify DNA fragmentation, cells detached with trypsin were centrifuged, washed and fixed with 70% ethanol at −20° C. for 1 h. Fixed cells were resuspended in a hypotonic lysis buffer (0.1% sodium citrate and 0.1% Triton X-100) containing […] of propidium iodide, incubated at 4° C. overnight. After final washings, all samples were analysed using a FACS-Calibur (Becton Dickinson) and CellQuest Software (Becton Dickinson).
(§2) Mouse adult neural stem cell culture. NSCs were isolated as previously described^30. Briefly, 6 week old female C57BL6 mice were sacrificied and tissue from hippocampus, SVZ and spinal cord was dissected out. […]

The subject of test [2] is neural progenitor cells. In words: Proliferation rate of neural progenitor cells. The test is classed as cell-based, mouse. Particulars: compared to untreated cells; data not shown. As for the experimental part: Mouse adult neural stem cell culture. NSCs were isolated as previously described^30. Briefly, 6 week old female C57BL6 mice were sacrificied and tissue from hippocampus, SVZ and spinal cord was dissected out. The tissue was digested, washed and cultured in Neurobasal Medium (Invitrogen Karlsruhe, Germany) supplemented with B27 (Invitrogen), Penicillin-Streptomycin (Invitrogen), Glutamax (Invitrogen), Heparin (2 μg/ml) (Sigma) and the growth factors EGF (20 ng/ml) (Promocell) and bFGF (20 ng/ml) (Promocell). After 7 days in culture neurospheres were harvested by centrifugation, dissociated using trypsin (Invitrogen) and replated. Cells were passaged once to twice weekly. Cells used for experiments were passaged between 10 to 15 times. Cells were stimulated with 10 μM Retinoic Acid or 1 activation unit of CD95L-T4. One activation unit was defined as the amount of CD95L-T4 required to increase phosphorylation of GSK3β. Activation units were defined freshly for each batch of CD95L-T4 and varied from 5-40 ng/ml.

The next test deals with hippocampal NSCs. In words: β-III-tubulin expression in hippocampal neural progenitor cells. The test is classed as cell-based, mouse. As to conditions: neural progenitors isolated from the HC. As for the experimental part: as §1, §2
The next test concerns SVZ NSCs. The test is described as follows: β-III-tubulin expression in adult SVZ neural progenitor cells (flow cytometry). The class given is cell-based, mouse. As to conditions: SVZ progenitors, in the presence of growth factors. The source says: Lentiviral infections. SVZ NSCs were infected with the lentiviral vector pEIGW and pEIGW-GSK3βS9A at a multiplicity of infection (MOI) of 5. The plasmids were constructed by replacing the eGFP sequence between the EF1α promotor and the WPRE element in pWPTS-eGFP with the IRES-eGFP cassette form pIRES2-eGFP (Clontech, Germany). The recombinant lentiviral vector pEIGW-GSK3βS9A was constructed using pcDNA3 HA-GSK3βS9A. This vector encodes a constitutively active GSK3β mutant containing a serine-to-alanine substitution at residue 9 (GSK3βS9A). Expression of all transgenes was confirmed in infected cells by FACS analysis of GFP expression. The percentage of infected cells was 70-90%.
siRNA. […] 48 h later pp60 src knockdown was assessed by Western Blot. At the same time, cells were stimulated with CD95L-T4 and analysed after 48 h for β-III-tubulin positive cells.
For staining of intracellular markers, cells were harvested, fixed with 4% PFA for 10 min on ice, washed and permeabilized using 0.1% Saponin (Sigma-Aldrich) in PBS with 10% FCS (SAP). […] Cells were washed again three times with SAP and analysed. […] To quantify DNA fragmentation, cells detached with trypsin were centrifuged, washed and fixed with 70% ethanol at −20° C. for 1 h. […] After final washings, all samples were analysed using a FACS-Calibur (Becton Dickinson) and CellQuest Software (Becton Dickinson). […]

A further test addresses T1, CD95 (Mus musculus, UniProt P25446).
T1 construct: pp60 and p85 association to CD95 increased at 1 minutes and 5 minutes after stimulation of NSCs with 1 U CD95L-T4; endogenous in cells; host or cells: mouse adult neural stem cells (C57BL6)
T1 sequence (P25446 22-327): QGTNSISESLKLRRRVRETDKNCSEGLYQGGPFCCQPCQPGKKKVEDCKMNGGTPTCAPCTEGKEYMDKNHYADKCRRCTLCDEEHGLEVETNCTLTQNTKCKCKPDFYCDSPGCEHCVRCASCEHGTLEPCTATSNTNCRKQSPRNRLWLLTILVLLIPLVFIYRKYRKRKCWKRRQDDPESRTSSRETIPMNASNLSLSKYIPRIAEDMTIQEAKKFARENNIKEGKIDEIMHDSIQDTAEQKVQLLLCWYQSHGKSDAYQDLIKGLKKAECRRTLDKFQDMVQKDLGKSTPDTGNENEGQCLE
In words: Immunoprecipitation of CD95 / phosphotyrosine from stimulated NSCs. The test is classed as cell-based. As to conditions: NSCs or developing neurons. As for the experimental part:
Immunoprecipitation. 2×10^7 cells were either treated with 1 activation unit (5-40 ng/ml depending on the batch of CD95L-T4) or 5000 ng/ml CD95L-T4 for 1 and 5 minutes (unless otherwise indicated) at 37° C. or left untreated, washed twice in PBS plus phosphatase inhibitors (NaF, NaN3, pNPP, NaPPi, β-Glycerolphosphate, 10 mM each and 2 mM orthovanadate), and subsequently lysed in buffer A (20 mM Tris/HCl, pH 7.5, 150 mM NaCl, 2 mM EDTA, 1 mM phenylmethylsulfonyl fluoride, protease inhibitor cocktail (Roche), 1% Triton X-100 (Serva, Heidelberg, Germany), 10% glycerol, and phosphatase inhibitors (NaF, NaN3, pNPP, NaPPi, 1′-Glycerolphosphate, 10 mM each and 2 mM orthovanadate) (stimulated condition) or lysed without treatment (unstimulated condition). Protein concentration was determined using BCA kit (Pierce). 1 mg of protein was immunoprecipitated overnight with either 5 μg anti-CD95 AB Jo2 or 5 μg anti-phospho tyrosine antibody (pTyr 4G10 (Upstate)) and 30 μl protein-A Sepharose. Beads were washed 5 times with 20 volumes of lysis buffer. The immunoprecipitates were mixed with 60 μl of Laemmli buffer and 30 μl were analyzed on either 15% or 7.5% SDS-PAGE. […]

B1: CD95L: the ligand for CD95 (APO-1/Fas) (protein, listed as Homo sapiens)
chain: MQQPFNYPYPQIYWVDSSASSPWAPPGTVLPCPTSVPRRPGQRRPPPPPPPPPLPPPPPPPPLPPLPLPPLKKRGNHSTGLCLLVMFFMVLVALVGLGLGMFQLFHLQKELAELRESTSQMHTASSLEKQIGHPSPPPEKKELRKVAHLTGKSNSRSMPLEWEDTYGIVLLSGVKYKKGGLVINETGLYFVYSKVYFRGQSCNNLPLSHKVYMRNSKYPQDLVMMEGKMMSYCTTGQMWARSSYLGAVFNLTSADHLYVNVSELSLVNFEESQTFFGLYKL
modifications: CHAIN (1)..(281) This feature is the amino acid sequence for CD95L protein. CD95L is a ligand for CD95. CD95 is APO-1/Fas and a member of the tumor necrosis factor receptor superfamily.
Turning to B1, in the test with neural progenitor cells [1], the GFAP expression entry is “did not change GFAP expression”. For the same molecule, the proliferation rate entry in the test with neural progenitor cells [2] is given as “did not lead to significant changes in the proliferation rate”. The β-III-tubulin expression result in the test on hippocampal NSCs is listed as “increase in β-III-tubulin expression”; in the test on SVZ NSCs, “greatly increased β-III-tubulin expression”. Further, the “FADD recruitment to CD95” value with CD95 is given as “did not induce efficient recruitment of the adaptor molecule FADD”.
